{"source": "patent EP4793287A1", "about": "“TUMOR MICROENVIRONMENT SPECIFICALLY ACTIVATED CD47 ANTIBODY” (Affinity (Shanghai) Biopharmaceutical Co., Ltd., priority 2023, dated 2025)", "key": {"[1]": {"system": "Raji cells", "assay": "FACS binding of CD47 antibody to Raji cells", "experimental": "(§1) The required cell line, Raji (cultured in RPMI-1640 (ATCC Modification, Gibco, Cat# A10491-01) + 10% FBS (BI, Cat# 04-001-1A) + 1× P/S), was expanded to the logarithmic phase. Cells were collected and pipetted to create a single-cell suspension, followed by centrifugation and removal of the supernatant. The cells were resuspended in FACS buffer (PBS + 2% FBS) and counted, and the cell density was adjusted to 2×10^6/ml. 100 µl/well of this suspension was added to a 96-well plate (Corning, Cat# 3799). After centrifugation and removal of the supernatant, 100 µl/well of the antibody sample to be tested (initial concentration of 100 nM, 5-fold gradient dilutions) was added, mixed with the cells, and incubated at 4 °C for 1 hour. Cells were washed by centrifugation with FACS buffer for three times, then added with 100 µl/well of Goat anti-Human IgG Fc Secondary Antibody, PE (eBioscience™, Invitrogen, Cat# 12-4998-82, 1:200 dilution) and incubated at 4 °C for 1 hour. After three washes with FACS buffer by centrifugation, the cells were resuspended in 200 µl/well of FACS buffer and analyzed using FACS (BECKMAN COULTER, CytoFLEX). Data were fitted and the results were analyzed using software (GraphPad Prism 8)."}, "[2]": {"target": "T1, binding of CD47 on Raji cells to SIRPα (Homo sapiens, UniProt Q08722)", "T1 construct": "endogenous in cells; host or cells: Raji", "T1 sequence (Q08722 19-323)": "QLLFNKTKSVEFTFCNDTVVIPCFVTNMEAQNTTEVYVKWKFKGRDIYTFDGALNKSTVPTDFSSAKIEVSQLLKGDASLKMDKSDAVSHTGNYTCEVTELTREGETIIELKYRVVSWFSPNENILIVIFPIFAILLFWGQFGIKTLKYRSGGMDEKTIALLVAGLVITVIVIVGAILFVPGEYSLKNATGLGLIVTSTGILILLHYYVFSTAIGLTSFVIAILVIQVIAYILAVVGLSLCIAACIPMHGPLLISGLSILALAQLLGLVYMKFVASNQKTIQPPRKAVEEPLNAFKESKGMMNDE", "assay": "Blocking of SIRPα binding on Raji cells (FACS)", "assay_type": "cell-based", "experimental": "as §1, with “tested (CD47 Antibodies at an initial” for “tested (initial”, “of 200” for “of 100”, “nM, with” for “nM,”, “gradient dilutions and 8 dilution points, mixed with an equal volume of Human SIRP alpha, mFc (DIMA Biotech, Cat# PME100531) at 16 µg/ml)” for “gradient dilutions)”, “Goat F(ab')2 Anti-Mouse IgG-Fc (PE), pre-adsorbed (abcam,” for “Goat anti-Human IgG Fc Secondary Antibody, PE (eBioscience™, Invitrogen,”, “Cat# ab98742,” for “Cat# 12-4998-82,”"}, "[3]": {"system": "Human red blood cells (RBCs)", "assay": "FACS binding to red blood cells", "experimental": "Human red blood cells (RBCs) (XFB-RBC, 10 ml) were centrifuged, and the supernatant was discarded. The cells were resuspended in FACS buffer (PBS + 2% FBS) and counted, and the cell density was adjusted to 2×10^6/ml. 100 µl/well of this suspension was added to a 96-well plate. After centrifugation and removal of the supernatant, the antibody to be tested (initial concentration of 100 nM, 5-fold gradient dilutions, 8 dilution points) was added at 100 µl/well, mixed with the cells, and incubated at 4 °C for 1 hour. Cells were washed by centrifugation with FACS buffer for three times, then added with 100 µl/well of Goat anti-Human IgG Fc Secondary Antibody, PE (eBioscience™, Invitrogen, Cat# 12-4998-82, 1:200 dilution) and incubated at 4 °C for 1 hour. After three washes with FACS buffer by centrifugation, the cells were resuspended in 200 µl/well of FACS buffer and analyzed using FACS (BECKMAN COULTER, CytoFLEX). Data were fitted and the results were analyzed using software (GraphPad Prism 8)."}, "[4]": {"system": "Raji cells", "assay": "ADCC assay with PBMCs, LDH detection", "assay_type": "cell-based", "experimental": "Raji cells (cultured in RPMI-1640 (ATCC Modification, Gibco, Cat# A10491-01) + 10% FBS (BI, Cat# 04-001-1A) + 1× P/S) were expanded to the logarithmic phase. Cells were collected and pipetted to create a single-cell suspension. After centrifugation, the supernatant was discarded, and the cells were resuspended in culture medium, counted, and the cell density was adjusted to 2×10^5/ml. 50 µl/well of this suspension was added to a 96-well cell culture plate (Corning, Cat# 3599) and incubated overnight at 37°C in a 5% CO2 atmosphere. PBMCs (XF, Cat# XC11100W) were resuspended in 10% FBS-RPMI1640 medium. After centrifugation, the supernatant was discarded, and the cell density was adjusted to 8×10^6/ml. 50 µl/well of the antibody to be tested and 50 µl of the PBMC suspension (E:T ratio of […]) were added to the culture plate. The plate was placed in a CO2 incubator and incubated for 24 hours. The ADCC assay was performed using an LDH detection kit (Cytotoxicity Detection KitPLUS (LDH), Roche, Cat# 4744934001)."}, "[5]": {"conditions": "after the CD47 TMEAbody was activated"}}}
{"molecule": "CD47 TMEAbody: CD47 TMEAbody conjugated with PEG of approximately 20K molecular weight (i.e., PEG20K) (conjugate) VH: QQQLEESGGGLVKPEGSLTLTCTASGFSFSSGYDMCWVRQAPGRGLEWIACIYTRSSGGTCYASWAKGRFTISKTSSTVDLRMTSLTAADTATYFCAGGRSSYRLNLWGQGALVTVSS VL: DVVMTQTPSPVEAAVGGTVTIKCQASQSISNELSWYQQKPGQPPKLLIYRASTLESGVSSRFKGSGSGTEFTLTISDLECADAATYYCQSTFYGDYGNAFGGGTEVVVK", "values": [{"measurement": "binding to Raji cells lower compared to 70H1", "setting": "[1]", "value": "approximately 60 fold"}, {"measurement": "activity in blocking the binding of CD47 on Raji cells to SIRPα", "setting": "[2]; [5]", "value": "restored"}, {"measurement": "activity in blocking the binding of CD47 on Raji cells to SIRPα", "setting": "[2]; not activated", "value": "significantly reduced"}, {"measurement": "binding to red blood cells", "setting": "[3]", "value": "essentially no binding to red blood cells"}, {"measurement": "EC50", "setting": "[4]; ADCC, E:T ratio of 20:1, 24 hours", "value": 16.3, "unit": "nM"}, {"measurement": "ADCC activity", "setting": "[4]; [5]", "value": "restored"}, {"measurement": "ADCC activity", "setting": "[4]; not activated, compared to the 70H1 antibody", "value": "lost its ADCC activity"}]}
